From patent EP4755912A1 (Shandong Boan Biotechnology Co., Ltd., dated 2026) come the findings set out here.

Read-outs that look alike come from different tables or passages of the source.

Test [1] has as its target T1, Human CD228 protein (human, UniProt P08582 20-708, limits assumed).
T1 construct: A His tag is named only for the panning and Western blot material (CD228-His); also called CD228 antigenic protein; C28
T1 sequence: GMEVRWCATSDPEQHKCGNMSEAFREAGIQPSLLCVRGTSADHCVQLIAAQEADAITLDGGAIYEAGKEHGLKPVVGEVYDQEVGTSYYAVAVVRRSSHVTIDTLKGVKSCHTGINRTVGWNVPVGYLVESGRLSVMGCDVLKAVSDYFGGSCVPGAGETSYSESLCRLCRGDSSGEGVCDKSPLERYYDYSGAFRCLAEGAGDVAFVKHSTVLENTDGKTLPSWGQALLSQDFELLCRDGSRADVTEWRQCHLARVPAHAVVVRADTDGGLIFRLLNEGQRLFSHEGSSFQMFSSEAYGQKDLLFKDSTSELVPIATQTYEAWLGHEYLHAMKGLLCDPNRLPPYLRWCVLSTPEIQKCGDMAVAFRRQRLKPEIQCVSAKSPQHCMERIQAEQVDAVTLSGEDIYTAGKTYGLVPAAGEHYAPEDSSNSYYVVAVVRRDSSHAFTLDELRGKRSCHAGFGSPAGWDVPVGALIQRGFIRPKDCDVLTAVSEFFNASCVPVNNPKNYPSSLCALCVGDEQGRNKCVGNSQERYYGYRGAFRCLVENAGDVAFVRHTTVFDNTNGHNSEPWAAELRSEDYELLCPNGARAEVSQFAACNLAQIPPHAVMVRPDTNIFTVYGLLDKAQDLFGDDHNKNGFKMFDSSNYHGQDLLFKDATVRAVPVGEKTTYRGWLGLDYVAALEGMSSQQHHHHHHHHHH
Kind of test: BLI, antibody on ProA sensor, CD228 protein in solution. (In BLI a coated tip is dipped into the sample, and binding shifts an interference pattern.)

In test [2] the target is T1, Human CD228 protein. Kind of test: ELISA, plate coated with CD228 protein at 0.2 µg/mL.
In test [3] the target is T1, Human CD228 protein. Kind of test: BLI, antibody on ProA sensor, CD228 protein in solution. This is another data set of the same source.

B1: R526 (antibody, V domains shown)
VH: QEQLEESGGRLVTPGTPLTLTCTVSGFSLSTYAINWIRQAPGKGLEWIGIIGGNGATYYTNWAKGRFTISKTSTTVDLKITSPTIEDTATYFCARGTNFWGPGTLVTVSS
VL: DPVLTQTASPVSAAVGGTITINCQASQSVYNNNQLSWFQQNPGQPPKRLIHSTSTLAPGVSSRFKGSGSGTQFTLTISDVQCDDAATYYCLGSYDCVSADCNAFGGGTEVVVKG
notes: Rabbit-derived clone, full-length antibody with rabbit constant regions
In general, Kd refers to a measure of binding affinity in units of concentration. Low values mean tighter binding, high ones weaker binding. One may read the EC50 as the midpoint of the concentration-response curve. Turning to B1, in the test with Human CD228 protein [1], the Kd is less than 0.001 nM and the Response is 0.0251. In the test with Human CD228 protein [2], this molecule had a 50% effective concentration (EC50) of 5.71 ng/mL.

B2: R546 (antibody, V domains shown)
VH: QSLEESGGRLVKPDETLTLTCTVSGFSLSSYDMSWVRQAPGKGLQWIGAATAGGNTYHASWAKGRFTISKTSTTVDLKITSPTTEDTATYFCTRGLNIWGPGTLVTVSS
VL: DPMLTQTASPVSAAVGSTVTINCQASQSVYNNNNLNWYQQKPGQPPKLLIYAASTLASGVPSRFKGSGSGTQFTLTISDVQCDDAATYYCLGAYDCSSADCGAFGGGTELEILG
notes: Rabbit-derived clone from a phage library, made as a full-length antibody with rabbit constant regions in HEK293 cells; also called CD228-R546; self-made antibody R546
In the test with Human CD228 protein [1], B2 showed a Kd of 1.33 nM and a Response of 0.128. Further, binding in the test with Human CD228 protein [3] was characterised by a dissociation constant (Kd) of 1.33 nM. Further, the response with Human CD228 protein [2] was half-maximal at 1.52 ng/mL (EC50).
